Source: US20100216693A1 (published 2010)

Molecular target: T1, Human insulin (Actrapid) (human)
T1 construct: On the chip it was coupled through the N-terminus (amine coupling) or the C-terminus (surface thiol coupling); also called free insulin; immobilized insulin
Assay: SPR, immobilized insulin

T1 sequence (chain, as listed by the source, chain 1 of 2): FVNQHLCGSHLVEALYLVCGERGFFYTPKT
T1 sequence (chain, as listed by the source, chain 2 of 2): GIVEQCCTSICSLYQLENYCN

## EAEDLQVGQVALGGGPGAGSLQPLALEGSLQ [C-peptide variant Glu11-Ala]
  binding result: no binding

## EAADLQVGQVALGGGPGAGSLQPLALAGSLQ [C-peptide variant with Glu3, 11 and 27 all exchanged for Ala]
  binding result: no binding

## EAEDLQVGQVELGGGPGAGSLQPLALAGSLQ (also called Glu27Ala C-peptide analogue) [C-peptide variant Glu27-Ala]
  binding result: no binding
